Results reported in the supplement of paper PMC5998384.

Tests used:
HeLa Kyoto [1] = assay: melting temperature (median over replicates), in situ; higher = more thermally stable
HeLa Kyoto [2] = assay: solubility in G1/S (NP-40 vs SDS abundance) (log2 ratio); higher = more soluble; conditions: cell cycle stage: G1/S
HeLa Kyoto [3] = assay: thermal stability score vs G1/S (z-score of summed log2 fold changes over temperatures); higher = more thermally stable than in G1/S
HeLa Kyoto [4] = assay: solubility change mitosis vs G1/S (difference of NP-40 vs SDS log2 ratios) (log2 ratio difference); higher = more soluble in mitosis
[5] = cell cycle stage: early G1 (4.5 h after nocodazole release)
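Throughout, for melting temperature (median over replicates), in situ: HeLa Kyoto cells synchronized by double thymidine or nocodazole block, proteins quantified by TMT10plex mass spectrometry, three independent biological replicates.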
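Throughout, for solubility change mitosis vs G1/S (difference of NP-40 vs SDS log2 ratios): synchronized HeLa Kyoto cells (double thymidine block for G1/S, nocodazole release for mitosis), protein amounts in NP-40 versus SDS lysates quantified by mass spectrometry, three biological replicates.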
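Throughout, for solubility in G1/S (NP-40 vs SDS abundance): HeLa Kyoto cells arrested at G1/S by double thymidine block, proteins quantified by TMT10plex mass spectrometry in mild NP-40 versus SDS extracts, three biological replicates.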
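Throughout, for thermal stability score vs G1/S (z-score of summed log2 fold changes over temperatures): synchronized HeLa Kyoto cells, proteins quantified by TMT10plex mass spectrometry, three biological replicates, mitosis taken 0.5 h after nocodazole release, G1/S directly after double thymidine block.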

Sequence	melting temperature (HeLa Kyoto [1]; cell cycle stage: G1/S) [°C]	melting temperature (HeLa Kyoto [1]; cell cycle stage: mitosis) [°C]	solubility in G1/S (log2) (HeLa Kyoto [2])	thermal stability score (HeLa Kyoto [3]; [5])	thermal stability score (HeLa Kyoto [3]; cell cycle stage: mitosis)	solubility change mitosis (log2) (HeLa Kyoto [4])
MEALILEPSLYTVKAILILDNDGDRLFAKYYDDTYPSVKEQKAFEKNIFNKTHRTDSEIALLEGLTVVYKSSIDLYFYVIGSSYENELMLMAVLNCLFDSLSQMLRKNVEKRALLENMEGLFLAVDEIVDGGVILESDPQQVVHRVALRGEDVPLTEQTVSQVLQSAKEQIKWSLLR [COPZ1]	52.4	53.1	0.235	-1.54	-1.52	0.197
MEALPLLAATTPDHGRHRRLLLLPLLLFLLPAGAVQGWETEERPRTREEECHFYAGGQVYPGEASRVSVADHSLHLSKAKISKPAPYWEGTAVIDGEFKELKLTDYRGKYLVFFFYPLDFTFVCPTEIIAFGDRLEEFRSINTEVVACSVDSQFTHLAWINTPRRQGGLGPIRIPLLSDLTHQISKDYGVYLEDSGHTLRGLFIIDDKGILRQITLNDLPVGRSVDETLRLVQAFQYTDKHGEVCPAGWKPGSETIIPDPAGKLKYFDKLN [PRDX4]	58.4	62.8	-0.00958	-1.92	-4.08	-0.0673
MEALSRAGQEMSLAALKQHDPYITSIADLTGQVALYTFCPKANQWEKTDIEGTLFVYRRSASPYHGFTIVNRLNMHNLVEPVNKDLEFQLHEPFLLYRNASLSIYSIWFYDKNDCHRIAKLMADVVEEETRRSQQAARDKQSPSQANGCSDHRPIDILEMLSRAKDEYERNQMGDSNISSPGLQPSTQLSNLGSTETLEEMPSGSQDKSAPSGHKHLTVEELFGTSLPKEQPAVVGLDSEEMERLPGDASQKEPNSFLPFPFEQLGGAPQSETLGVPSAAHHSVQPEITTPVLITPASITQSNEKHAPTYTIPLSPVLSPTLPAEAPTAQVPPSLPRNSTMMQAVKTTPRQRSPLLNQPVPELSHASLIANQSPFRAPLNVTNTAGTSLPSVDLLQKLRLTPQHDQIQTQPLGKGAMVASFSPAAGQLATPESFIEPPSKTAAARVAASASLSNMVLAPLQSMQQNQDPEVFVQPKVLSSAIPVAGAPLVTATTTAVSSVLLAPSVFQQTVTRSSDLERKASSPSPLTIGTPESQRKPSIILSKSQLQDTLIHLIKNDSSFLSTLHEVYLQVLTKNKDNHNL [DCP1A]	50.5	50.9	0.265	-0.228	1.27	-0.0577
MEANWTAFLFQAHEASHHQQQAAQNSLLPLLSSAVEPPDQKPLLPIPITQKPQGAPETLKDAIGIKKEKPKTSFVCTYCSKAFRDSYHLRRHESCHTGIKLVSRPKKTPTTVVPLISTIAGDSSRTSLVSTIAGILSTVTTSSSGTNPSSSASTTAMPVTQSVKKPSKPVKKNHACEMCGKAFRDVYHLNRHKLSHSDEKPFECPICNQRFKRKDRMTYHVRSHEGGITKPYTCSVCGKGFSRPDHLSCHVKHVHSTERPFKCQTCTAAFATKDRLRTHMVRHEGKVSCNICGKLLSAAYITSHLKTHGQSQSINCNTCKQGISKTCMSEETSNQKQQQQQQQQQQQQQQQQQQHVTSWPGKQVETLRLWEEAVKARKKEAANLCQTSTAATTPVTLTTPFSITSSVSSGTMSNPVTVAAAMSMRSPVNVSSAVNITSPMNIGHPVTITSPLSMTSPLTLTTPVNLPTPVTAPVNIAHPVTITSPMNLPTPMTLAAPLNIAMRPVESMPFLPQALPTSPPW [VEZF1]	55.4		0.142	0.665	0.5	0.0342
MEAQAQGLLETEPLQGTDEDAVASADFSSMLSEEEKEELKAELVQLEDEITTLRQVLSAKERHLVEIKQKLGMNLMNELKQNFSKSWHDMQTTTAYKKTHETLSHAGQKATAAFSNVGTAISKKFGDMSYSIRHSISMPAMRNSPTFKSFEERVETTVTSLKTKVGGTNPNGGSFEEVLSSTAHASAQSLAGGSRRTKEEELQC [TPD52L1]	54.4	53.6	0.458	-3.64	-3.95	0.111
MEASVILPILKKKLAFLSGGKDRRSGLILTIPLCLEQTNMDELSVTLDYLLSIPSEKCKARGFTVIVDGRKSQWNVVKTVVVMLQNVVPAEVSLVCVVKPDEFWDKKVTHFCFWKEKDRLGFEVILVSANKLTRYIEPCQLTEDFGGSLTYDHMDWLNKRLVFEKFTKESTSLLDELALINNGSDKGNQQEKERSVDLNFLPSVDPETVLQTGHELLSELQQRRFNGSDGGVSWSPMDDELLAQPQVMKLLDSLREQYTRYQEVCRQRSKRTQLEEIQQKVMQVVNWLEGPGSEQLRAQWGIGDSIRASQALQQKHEEIESQHSEWFAVYVELNQQIAALLNAGDEEDLVELKSLQQQLSDVCYRQASQLEFRQNLLQAALEFHGVAQDLSQQLDGLLGMLCVDVAPADGASIQQTLKLLEEKLKSVDVGLQGLREKGQGLLDQISNQASWAYGKDVTIENKENVDHIQGVMEDMQLRKQRCEDMVDVRRLKMLQMVQLFKCEEDAAQAVEWLSELLDALLKTHIRLGDDAQETKVLLEKHRKFVDVAQSTYDYGRQLLQATVVLCQSLRCTSRSSGDTLPRLNRVWKQFTIASEERVHRLEMAIAFHSNAEKILQDCPEEPEAINDEEQFDEIEAVGKSLLDRLTVPVVYPDGTEQYFGSPSDMASTAENIRDRMKLVNLKRQQLRHPEMVTTES [SESTD1]		49.5	0.132	-0.259	0.238	-0.126
MEATGTDEVDKLKTKFISAWNNMKYSWVLKTKTYFSRNSPVLLLGKCYHFKYEDEDKTLPAESGCTIEDHVIAGNVEEFRKDFISRIWLTYREEFPQIEGSALTTDCGWGCTLRTGQMLLAQGLILHFLGRAWTWPDALNIENSDSESWTSHTVKKFTASFEASLSGEREFKTPTISLKETIGKYSDDHEMRNEVYHRKIISWFGDSPLALFGLHQLIEYGKKSGKKAGDWYGPAVVAHILRKAVEEARHPDLQGITIYVAQDCTVYNSDVIDKQSASMTSDNADDKAVIILVPVRLGGERTNTDYLEFVKGILSLEYCVGIIGGKPKQSYYFAGFQDDSLIYMDPHYCQSFVDVSIKDFPLETFHCPSPKKMSFRKMDPSCTIGFYCRNVQDFKRASEEITKMLKFSSKEKYPLFTFVNGHSRDYDFTSTTTNEEDLFSEDEKKQLKRFSTEEFVLL [ATG4C]	50.6	50.3	-1.32	-0.279	0.138	0.268
MEATGVLPFVRGVDLSGNDFKGGYFPENVKAMTSLRWLKLNRTGLCYLPEELAALQKLEHLSVSHNNLTTLHGELSSLPSLRAIVARANSLKNSGVPDDIFKLDDLSVLDLSHNQLTECPRELENAKNMLVLNLSHNSIDTIPNQLFINLTDLLYLDLSENRLESLPPQMRRLVHLQTLVLNGNPLLHAQLRQLPAMTALQTLHLRSTQRTQSNLPTSLEGLSNLADVDLSCNDLTRVPECLYTLPSLRRLNLSSNQITELSLCIDQWVHVETLNLSRNQLTSLPSAICKLSKLKKLYLNSNKLDFDGLPSGIGKLTNLEEFMAANNNLELVPESLCRCPKLRKLVLNKNHLVTLPEAIHFLTEIEVLDVRENPNLVMPPKPADRAAEWYNIDFSLQNQLRLAGASPATVAAAAAAGSGPKDPMARKMRLRRRKDSAQDDQAKQVLKGMSDVAQEKNKKQEESADARAPSGKVRRWDQGLEKPRLDYSEFFTEDVGQLPGLTIWQIENFVPVLVEEAFHGKFYEADCYIVLKTFLDDSGSLNWEIYYWIGGEATLDKKACSAIHAVNLRNYLGAECRTVREEMGDESEEFLQVFDNDISYIEGGTASGFYTVEDTHYVTRMYRVYGKKNIKLEPVPLKGTSLDPRFVFLLDRGLDIYVWRGAQATLSSTTKARLFAEKINKNERKGKAEITLLVQGQELPEFWEALGGEPSEIKKHVPEDFWPPQPKLYKVGLGLGYLELPQINYKLSVEHKQRPKVELMPRMRLLQSLLDTRCVYILDCWSDVFIWLGRKSPRLVRAAALKLGQELCGMLHRPRHATVSRSLEGTEAQVFKAKFKNWDDVLTVDYTRNAEAVLQSPGLSGKVKRDAEKKDQMKADLTALFLPRQPPMSLAEAEQLMEEWNEDLDGMEGFVLEGKKFARLPEEEFGHFYTQDCYVFLCRYWVPVEYEEEEKKEDKEEKAEGKEGEEATAEAEEKQPEEDFQCIVYFWQGREASNMGWLTFTFSLQKKFESLFPGKLEVVRMTQQQENPKFLSHFKRKFIIHRGKRKAVQGAQQPSLYQIRTNGSALCTRCIQINTDSSLLNSEFCFILKVPFESEDNQGIVYAWVGRASDPDEAKLAEDILNTMFDTSYSKQVINEGEEPENFFWVGIGAQKPYDDDAEYMKHTRLFRCSNEKGYFAVTEKCSDFCQDDLADDDIMLLDNGQEVYMWVGTQTSQVEIKLSLKACQVYIQHMRSKEHERPRRLRLVRKGNEQHAFTRCFHAWSAFCKALA [FLII]	49.5	49.5	-0.172	-0.0623	0.353	-0.0947
MEAVLTEELDEEEQLLRRHRKEKKELQAKIQGMKNAVPKNDKKRRKQLTEDVAKLEKEMEQKHREELEQLKLTTKENKIDSVAVNISNLVLENQPPRISKAQKRREKKAALEKEREERIAEAEIENLTGARHMESEKLAQILAARQLEIKQIPSDGHCMYKAIEDQLKEKDCALTVVALRSQTAEYMQSHVEDFLPFLTNPNTGDMYTPEEFQKYCEDIVNTAAWGGQLELRALSHILQTPIEIIQADSPPIIVGEEYSKKPLILVYMRHAYGLGEHYNSVTRLVNIVTENCS [OTUD6B]	49.9	50	0.512	0.405	0.425	-0.0729
MEDAGGGEETPAPEAPHPPQLAPPEEQGLLFQEETIDLGGDEFGSEENETASEGSSPLADKLNEHMMESVLISDSPNSEGDAGDLGRVRDEAEPGGEGDPGPEPAGTPSPSGEADGDCAPEDAAPSSGGAPRQDAAREVPGSEAARPEQEPPVAEPVPVCTIFSQRAPPASGDGFEPQMVKSPSFGGASEASARTPPQVVQPSPSLSTFFGDTAASHSLASDFFDSFTTSAFISVSNPGAGSPAPASPPPLAVPGTEGRPEPVAMRGPQAAAPPASPEPFAHIQAVFAGSDDPFATALSMSEMDRRNDAWLPGEATRGVLRAVATQQRGAVFVDKENLTMPGLRFDNIQGDAVKDLMLRFLGEKAAAKRQVLNADSVEQSFVGLKQLISCRNWRAAVDLCGRLLTAHGQGYGKSGLLTSHTTDSLQLWFVRLALLVKLGLFQNAEMEFEPFGNLDQPDLYYEYYPHVYPGRRGSMVPFSMRILHAELQQYLGNPQESLDRLHKVKTVCSKILANLEQGLAEDGGMSSVTQEGRQASIRLWRSRLGRVMYSMANCLLLMKDYVLAVEAYHSVIKYYPEQEPQLLSGIGRISLQIGDIKTAEKYFQDVEKVTQKLDGLQGKIMVLMNSAFLHLGQNNFAEAHRFFTEILRMDPRNAVANNNAAVCLLYLGKLKDSLRQLEAMVQQDPRHYLHESVLFNLTTMYELESSRSMQKKQALLEAVAGKEGDSFNTQCLKLA [TRAPPC12]	50.1	49.2	0.188	0.55	0.59	-0.258
